Patent US11969464B2, “Amidated peptides and their deamidated counterparts displayed by HLA-A*02 for use in immunotherapy against different types of cancers” (Immatics Biotechnologies GmbH, priority 2020, dated 2024)

Biological target: HLA-A*02:01 (Homo sapiens, UniProt P04439, D140Y/D185E/D98H/E176V/E277Q/G131W/G231S/I119V/I121R/I166T/I218V/L300P/L318F/N151K/N90K/P208A/P217A/Q86G/Q94H/R138H/R169H/T345S)
Assay: MHC binding assay (UV-ligand exchange, anti-β2m ELISA)
Settings: peptide exchange yield, binding to HLA-A*02:01
Description: Candidate peptides for T cell based therapies according to the present invention were further tested for their MHC binding capacity (affinity). The individual peptide-MHC complexes were produced by UV-ligand exchange, where a UV-sensitive peptide is cleaved upon UV-irradiation and exchanged with the peptide of interest as analyzed. Only peptide candidates that can effectively bind and stabilize the peptide-receptive MHC molecules prevent dissociation of the MHC complexes. To determine the yield of the exchange reaction, an ELISA was performed based on the detection of the light chain (β2m) of stabilized MHC complexes. The assay was performed as generally described in Rodenko et al. (Rodenko et al., 2006).
96 well MAXISorp plates (NUNC) were coated over night with 2 μg/ml streptavidin in PBS at room temperature, washed 4× and blocked for 1 h at 37° C. in 2% BSA containing blocking buffer. Refolded HLA-A*02:01/MLA-001 monomers served as standards, covering the range of 15-500 ng/ml. Peptide-MHC monomers of the UV-exchange reaction were diluted 100-fold in blocking buffer. Samples were incubated for 1 h at 37° C., washed four times, incubated with 2 μg/ml HRP conjugated anti-β2m for 1 h at 37° C., washed again and detected with TMB solution that is stopped with […]. Absorption was measured at 450 nm. Candidate peptides that show a high exchange yield (preferably higher than 50%, most preferred higher than 75%) are generally preferred for a generation and production of antibodies or fragments thereof, and/or T cell receptors or fragments thereof, as they show sufficient avidity to the MHC molecules and prevent dissociation of the MHC complexes.

Peptide exchange	Substance
++++ (≥75% = ++++)	26 (ILYDGSNIQL; peptide displayed by HLA-A*02) [compound 26]
++++ (≥75% = ++++)	70 (SMASFLKDV; peptide displayed by HLA-A*02) [compound 70]
+++ (≥50% = +++)	46 (SLSDVSQAV; peptide displayed by HLA-A*02) [compound 46]
++++ (≥75% = ++++)	33 (ILFDLTHRV; peptide displayed by HLA-A*02) [compound 33]
+++ (≥50% = +++)	48 (AIYHDITGISV; peptide displayed by HLA-A*02) [compound 48]
+++ (≥50% = +++)	9 (SLDDSLNEL; peptide displayed by HLA-A*02) [compound 9]
++++ (≥75% = ++++)	94 (YLWWVNDQSL; peptide displayed by HLA-A*02) [compound 94]
+++ (≥50% = +++)	16 (KLISDMGKDVSA; peptide displayed by HLA-A*02) [compound 16]
++++ (≥75% = ++++)	75 (KLHDTSFCL; peptide displayed by HLA-A*02) [compound 75]
++++ (≥75% = ++++)	21 (FLNLFDHTL; peptide displayed by HLA-A*02) [compound 21]
+++ (≥50% = +++)	35 (SLRDGTEVV; peptide displayed by HLA-A*02) [compound 35]
++++ (≥75% = ++++)	72 (ALDSTNSEL; peptide displayed by HLA-A*02) [compound 72]
++++ (≥75% = ++++)	4 (YVWDRTELL; peptide displayed by HLA-A*02) [compound 4]
+++ (≥50% = +++)	81 (AVDKTQTSV; peptide displayed by HLA-A*02) [compound 81]
++++ (≥75% = ++++)	99 (NLLDHSSMFL; peptide displayed by HLA-A*02) [compound 99]
++++ (≥75% = ++++)	90 (VLDGTEVNL; peptide displayed by HLA-A*02) [compound 90]
++++ (≥75% = ++++)	24 (QLLGRDISL; peptide displayed by HLA-A*02) [compound 24]
+++ (≥50% = +++)	40 (FLDQTDETL; peptide displayed by HLA-A*02) [compound 40]
++++ (≥75% = ++++)	62 (FLKDVTAQI; peptide displayed by HLA-A*02) [compound 62]
+++ (≥50% = +++)	84 (KMLDETVLV; peptide displayed by HLA-A*02) [compound 84]
++++ (≥75% = ++++)	41 (FLDTSTADV; peptide displayed by HLA-A*02) [compound 41]
++++ (≥75% = ++++)	63 (GLDRTQLVNV; peptide displayed by HLA-A*02) [compound 63]
++++ (≥75% = ++++)	27 (YLFEDISQL; peptide displayed by HLA-A*02) [compound 27]

Peptide exchange	Substance
++ (≥20% =++)	91 (VLKDGTLVI; peptide displayed by HLA-A*02) [compound 91]
++++ (≥75% = ++++)	34 (SLLDGSESAKL; peptide displayed by HLA-A*02) [compound 34]
+++ (≥50% = +++)	38 (AVDGTDARL; peptide displayed by HLA-A*02) [compound 38]
++++ (≥75% = ++++)	52 (ILFDDSVFTL; peptide displayed by HLA-A*02) [compound 52]
+++ (≥50% = +++)	22 (HMIDLTIHL; peptide displayed by HLA-A*02) [compound 22]
++++ (≥75% = ++++)	25 (FMNDRSFIL; peptide displayed by HLA-A*02) [compound 25]
++++ (≥75% = ++++)	74 (KILDFTGPLFL; peptide displayed by HLA-A*02) [compound 74]
++++ (≥75% = ++++)	49 (ALDDYTITF; peptide displayed by HLA-A*02) [compound 49]
++++ (≥75% = ++++)	86 (NLADNTILV; peptide displayed by HLA-A*02) [compound 86]
+++ (≥50% = +++)	15 (VLDDTLVIF; peptide displayed by HLA-A*02) [compound 15]
++++ (≥75% = ++++)	20 (SLFAYPLPDV; peptide displayed by HLA-A*02) [compound 20]
+++ (≥50% = +++)	28 (FLLDGTDMFHM; peptide displayed by HLA-A*02) [compound 28]
++++ (≥75% = ++++)	55 (KTWDQSIAL; peptide displayed by HLA-A*02) [compound 55]
++++ (≥75% = ++++)	5 (ALPQFFNDV; peptide displayed by HLA-A*02) [compound 5]
++++ (≥75% = ++++)	54 (KLEERVYDV; peptide displayed by HLA-A*02) [compound 54]
+++ (≥50% = +++)	36 (SLYDFTGEQMAA; peptide displayed by HLA-A*02) [compound 36]
++++ (≥75% = ++++)	77 (YLHGFDLSL; peptide displayed by HLA-A*02) [compound 77]
+++ (≥50% = +++)	78 (AIDQTITEA; peptide displayed by HLA-A*02) [compound 78]
++++ (≥75% = ++++)	19 (RLLDTTDVYLL; peptide displayed by HLA-A*02) [compound 19]
+++ (≥50% = +++)	67 (LLDTTDVYL; peptide displayed by HLA-A*02) [compound 67]
++++ (≥75% = ++++)	2 (RLLEGDFSL; peptide displayed by HLA-A*02) [compound 2]
++++ (≥75% = ++++)	73 (ALMDVSQNV; peptide displayed by HLA-A*02) [compound 73]
++++ (≥75% = ++++)	89 (SLFIDVTRV; peptide displayed by HLA-A*02) [compound 89]

Peptide exchange	Substance
++++ (≥75% = ++++)	71 (YLGAVFDL; peptide displayed by HLA-A*02) [compound 71]
+++ (≥50% = +++)	37 (AIDDTAARL; peptide displayed by HLA-A*02) [compound 37]
++++ (≥75% = ++++)	64 (ILFDPDNSSAL; peptide displayed by HLA-A*02) [compound 64]
++++ (≥75% = ++++)	31 (TLIDATWLV; peptide displayed by HLA-A*02) [compound 31]
++++ (≥75% = ++++)	95 (KLAPEDLADLTAL; peptide displayed by HLA-A*02) [compound 95]
++++ (≥75% = ++++)	60 (TLDITIVNL; peptide displayed by HLA-A*02) [compound 60]
++++ (≥75% = ++++)	51 (HLCNHDVSL; peptide displayed by HLA-A*02) [compound 51]
++++ (≥75% = ++++)	43 (KLLNDLTSI; peptide displayed by HLA-A*02) [compound 43]
++++ (≥75% = ++++)	82 (FLNPDGSDCTL; peptide displayed by HLA-A*02) [compound 82]
++++ (≥75% = ++++)	45 (SLFDDSFSL; peptide displayed by HLA-A*02) [compound 45]
+++ (≥50% = +++)	42 (IQDTSHLAV; peptide displayed by HLA-A*02) [compound 42]
+++ (≥50% = +++)	58 (SQDASLLKV; peptide displayed by HLA-A*02) [compound 58]
++++ (≥75% = ++++)	44 (LLDATHQI; peptide displayed by HLA-A*02) [compound 44]
+++ (≥50% = +++)	93 (YLDGTFRLL; peptide displayed by HLA-A*02) [compound 93]
++++ (≥75% = ++++)	10 (FLGEDISNFL; peptide displayed by HLA-A*02) [compound 10]
++++ (≥75% = ++++)	57 (SLDISLPNL; peptide displayed by HLA-A*02) [compound 57]
++++ (≥75% = ++++)	17 (NVDSTILNL; peptide displayed by HLA-A*02) [compound 17]
++++ (≥75% = ++++)	1 (ILDSTTIEI; peptide displayed by HLA-A*02) [compound 1]
++++ (≥75% = ++++)	88 (RLLDETVDVTI; peptide displayed by HLA-A*02) [compound 88]
++++ (≥75% = ++++)	92 (YLADFSHAT; peptide displayed by HLA-A*02) [compound 92]
+++ (≥50% = +++)	14 (YIYDGKDMSSL; peptide displayed by HLA-A*02) [compound 14]
